Measured values from paper PMC5389812, “Rv3634c from Mycobacterium tuberculosis H37Rv encodes an enzyme with UDP-Gal/Glc and UDP-GalNAc 4-epimerase activities” (PLoS ONE, 2017).

B1: His-tagged Rv3634c (H3634) S121A mutant (enzyme)
chain: MRALVTGAAGFIGSTLVDRLLADGHSVVGLDNFATGRATNLEHLADNSAHVFVEADIVTADLHAILEQHRPEVVFHLAAQIDVRRSVADPQFDAAVNVIGTVRLAEAARQTGVRKIVHTSAGGSIYGTPPEYPTPETAPTDPASPYAAGKVAGEIYLNTFRHLYGLDCSHIAPANVYGPRQDPHGEAGVVAIFAQALLSGKPTRVFGDGTNTRDYVFVDDVVDAFVRVSADVGGGLRFNIGTGKETSDRQLHSAVAAAVGGPDDPEFHPPRLGDLKRSCLDIGLAERVLGWRPQIELADGVRRTVEYFRHKHTD
notes: not shown: His6, N-terminal, kept
B2: His-tagged Rv3634c (H3634) K150R mutant (enzyme)
chain: MRALVTGAAGFIGSTLVDRLLADGHSVVGLDNFATGRATNLEHLADNSAHVFVEADIVTADLHAILEQHRPEVVFHLAAQIDVRRSVADPQFDAAVNVIGTVRLAEAARQTGVRKIVHTSSGGSIYGTPPEYPTPETAPTDPASPYAAGRVAGEIYLNTFRHLYGLDCSHIAPANVYGPRQDPHGEAGVVAIFAQALLSGKPTRVFGDGTNTRDYVFVDDVVDAFVRVSADVGGGLRFNIGTGKETSDRQLHSAVAAAVGGPDDPEFHPPRLGDLKRSCLDIGLAERVLGWRPQIELADGVRRTVEYFRHKHTD
notes: as for B1
B3: His-tagged Rv3634c (H3634) Y146F mutant (enzyme)
chain: MRALVTGAAGFIGSTLVDRLLADGHSVVGLDNFATGRATNLEHLADNSAHVFVEADIVTADLHAILEQHRPEVVFHLAAQIDVRRSVADPQFDAAVNVIGTVRLAEAARQTGVRKIVHTSSGGSIYGTPPEYPTPETAPTDPASPFAAGKVAGEIYLNTFRHLYGLDCSHIAPANVYGPRQDPHGEAGVVAIFAQALLSGKPTRVFGDGTNTRDYVFVDDVVDAFVRVSADVGGGLRFNIGTGKETSDRQLHSAVAAAVGGPDDPEFHPPRLGDLKRSCLDIGLAERVLGWRPQIELADGVRRTVEYFRHKHTD
notes: as for B1

Target: the molecule itself
Assay: SEC; Superdex 200 16/600 GL column, FPLC buffer (20 mM Tris pH 8.0, 100 mM NaCl); calibrated with conalbumin, ovalbumin, carbonic anhydrase, ribonuclease A and aprotinin; molecular weight from Kav
B1 was tested, and the “stoichiometry N” value was 2.
In the case of B2, the “stoichiometry N” value is reported as 2.
With B3 the “stoichiometry N” value was 2.
